According to US20240101668A1 (WUGEN, published 2024):

Columns and labels:
[1] = biological target: T1, huCLL1-K244-Avi-Tev-His (human, UniProt Q5QGZ9 65-265); test: BLI
T1 construct: extracellular domain
T1 sequence (looked up): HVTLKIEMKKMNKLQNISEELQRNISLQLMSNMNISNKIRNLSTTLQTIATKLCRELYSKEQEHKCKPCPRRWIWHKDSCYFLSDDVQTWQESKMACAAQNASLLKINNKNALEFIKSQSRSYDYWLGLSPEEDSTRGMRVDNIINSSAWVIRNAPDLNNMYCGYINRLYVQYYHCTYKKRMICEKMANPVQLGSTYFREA

[2] = biological target: T2, huCLL1-Q244-Avi-Tev-His (human, UniProt Q5QGZ9 65-265); test: BLI
T2 construct: extracellular domain; also called CLL-1 K244Q
T2 sequence (looked up): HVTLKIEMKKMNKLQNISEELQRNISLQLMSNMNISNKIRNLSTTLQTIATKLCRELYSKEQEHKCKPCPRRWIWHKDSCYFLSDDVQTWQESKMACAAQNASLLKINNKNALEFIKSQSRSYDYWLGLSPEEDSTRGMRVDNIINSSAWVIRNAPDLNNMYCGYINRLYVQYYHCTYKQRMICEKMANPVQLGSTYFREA

Binder	binding result [1]	binding result [2]
Polypeptide No. 185 (scFv, V domains shown, scFv) VH: EVQLLESGGGLVQPGGSLRLSCAASGFTFSNSDMYWVRQAPGKGLEWVSAISGSDGTTYYADSVKGRFTISRDNSKNTLYLQMNSLRAEDTAVYYCARDDYGDQGFDLWGRGTLVTVSS VL: DIQMTQSPSSLSASVGDRVTITCRASQDIRNDLGWYQQKPGKAPKLLIYDASNLQTGVPSRFSGSGSGTDFTLTISSLQPEDFATYYCQQSYNMPYTFGQGTKLEIKR	binds	binds
Polypeptide No. 199 (scFv, V domains shown, scFv) VH: QVQLVQSGAEVKKPGASVKVSCKASGDTFTGYHIHWVRQAPGQGLEWMGWMNPDSGSTGYAQKFQGRVTMTRDTSTSTVYMELSSLRSEDTAVYYCTTDRLYGDYFDYWGQGTLVTVSS VL: DIQMTQSPSSLSASVGDRVTITCRASQSVSSWLAWYQQKPGKAPKLLIYDASSLQSGVPSRFSGSGSGTDFTLTISSLQPEDFATYYCQQANSFPFTFGPGTKVDIKR	binds	no binding
Polypeptide No. 190 (scFv, V domains shown, scFv) VH: EVQLLESGGGLVQPGGSLRLSCAASGFTFSSSWMHWVRQAPGKGLEWVSTINTNGDAAYYADSVKGRFTISRDNSKNTLYLQMNSLRAEDTAVYYCARDTVLDDYGDYDDYGMDVWGQGTTVTVSS VL: EIVMTQSPATLSVSPGERATLSCRASQSVSSSYLAWYQQKPGQAPRLLIYGASTRAAGIPARFSGSGSGTEFTLTISSLQSEDFAVYYCQQYGSSPFTFGPGTKVDIKR	binds	binds
Polypeptide No. 181 (scFv, V domains shown, scFv) VH: QVQLVQSGAEVKKPGASVKVSCKASGYTFTGYYMHWVRQAPGQGLEWMGVINPSGGSTSYAQKFQGRVTMTRDTSTSTVYMELSSLRSEDTAVYYCARGRTDDAFDIWGQGTLVTVSS VL: DIQMTQSPSSLSASVGDRVTITCRASQTISSWLAWYQQKPGKAPKLLIYAASTLQSGVPSRFSGSGSGTDFTLTISSLQPEDFATYYCQQSYSIPLTFGGGTKLEIKR	binds	binds
Polypeptide No. 197 (scFv, V domains shown, scFv) VH: QVQLVQSGAEVKKPGASVKVSCKASGYTLTNNWMHWVRQAPGQGLEWMGWMNPNSGNTGYAQKFQGRVTMTRDTSTSTVYMELSSLRSEDTAVYYCATATADDAFDIWGQGTMVTVSS VL: DIQMTQSPSSLSASVGDRVTITCRASQSISTWLAWYQQKPGKAPKLLIYGASSLQSGVPSRFSGSGSGTDFTLTISSLQPEDFATYYCQQSYDIPITFGPGTKVDIKR	binds	binds
Polypeptide No. 182 (scFv, V domains shown, scFv) VH: QVQLVQSGAEVKKPGASVKVSCKASGYTFTDYYMHWVRQAPGQGLEWLGIINTGAGTTNYAPKFQGRVTMTRDTSTSTVYMELSSLRSEDTAVYYCARGLTSDHFDYWGQGTLVTVSS VL: DIQMTQSPSSLSASVGDRVTITCRASQNIGPWLAWYQQKPGKAPKLLIYEAFTLQSGVPSRFSGSGSGTDFTLTISSLQPEDFATYYCQQSDNIPITFGQGTKVEIKR	binds	binds
Polypeptide No. 189 (scFv, V domains shown, scFv) VH: EVQLLESGGGLVQPGGSLRLSCAASGLTAGSNYMSWVRQAPGKGLEWVSAISDDGHWTDYADSVKGRFTISRDNSKNTLYLQMNSLRAEDTAVYYCVKDDGEGSGIDWGQGTLVTVSS VL: DIQMTQSPSSLSASVGDRVTITCRASQGISDYLAWYQQKPGKAPKLLIYGASSLQSGVPSRFSGSGSGTDFTLTISSLQPEDFATYYCQQSYSTPWTFGPGTKVDIKR	binds	binds
Polypeptide No. 183 (scFv, V domains shown, scFv) VH: QVQLVQSGAEVKKPGSSVKVSCKASGGTFSSYAISWVRQAPGQGLEWMGGIIPKFGPPNYAPKFQGRVTITADESTSTAYMELSSLRSEDTAVYYCARNSYGDDFDYWGQGTLVTVSS VL: DIQMTQSPSSLSASVGDRVTITCRASQSISSWLAWYQQKPGKAPKLLIYAASSLQRGVPSRFSGSGSGTDFTLTISSLQPEDFATYYCQQSYSTPLTFGQGTKVEIKR	binds	binds
Polypeptide No. 194 (scFv, V domains shown, scFv) VH: QVQLVQSGAEVKKPGASVKVSCKASGVTFSNSGINWVRQAPGQGLEWMGWMNPASGDTGYAQKFQGRVTMTRDTSTSTVYMELSSLRSEDTAVYYCARGEYGAEYFQHWGQGTLVTVSS VL: DIQMTQSPSSLSASVGDRVTITCRASQSISSWLAWYQQKPGKAPKLLIYDASSLESGVPSRFSGSGSGTDFTLTISSLQPEDFATYYCQQSHSLPPTFGQGTRLEIKR	binds	binds
Polypeptide No. 178 (scFv, V domains shown, scFv) VH: EVQLLESGGGLVQPGGSLRLSCAASGFTFSSSDMSWVRQAPGKGLEWVSSITGSGDGTYYADSVKGRFTISRDNSKNTLYLQMNSLRAEDTAVYYCIRDWEGIYQWGQGTLVTVSS VL: DIQMTQSPSSLSASVGDRVTITCRVSQGISSYLNWYQQKPGKAPKLLIYDASNLETGVPSRFSGSGSGTDFTLTISSLQPEDFATYYCQQGYSTPWTFGQGTKLEIKR	binds	binds
Polypeptide No. 195 (scFv, V domains shown, scFv) VH: QVQLVQSGAEVKKPGASVKVSCKASGYTFTNSYIHWVRQAPGQGLEWMGIINPSGDSTTYAQKFQGRVTMTRDTSTSTVYMELSSLRSEDTAVYYCAKPTTGDGMDVWGQGTTVTVSS VL: DIQMTQSPSSLSASVGDRVTITCRASQGISNWLAWYQQKPGKAPKLLIYDASNLETGVPSRFSGSGSGTDFTLTISSLQPEDFATYYCQQSYSTPLTFGGGTKVEIKR	binds	binds
Polypeptide No. 198 (scFv, V domains shown, scFv) VH: EVQLLESGGGLVQPGGSLRLSCAASGFTFSTFWMSWVRQAPGKGLEWVATISYDGSNQYYADSVKGRFTISRDNSKNTLYLQMNSLRAEDTAVYYCARLELHEGRFDYWGQGTLVTVSS VL: DIQMTQSPSSLSASVGDRVTITCRASQSISSYLNWYQQKPGKAPKLLIYDASNLETGVPSRFSGSGSGTDFTLTISSLQPEDFATYYCQQANSFPFTFGPGTKVDIKR	binds	no binding
Polypeptide No. 196 (scFv, V domains shown, scFv) VH: QVQLVQSGAEVKKPGASVKVSCKASGYTLTNYYMHWVRQAPGQGLEWMGWISPTDGKTKYAQKFQGRVTMTRDTSTSTVYMELSSLRSEDTAVYYCTTDLLGDWFDPWGQGTLVTVSS VL: DIQMTQSPSSLSASVGDRVTITCRASRSIRSYLNWYQQKPGKAPKLLIYDASNLETGVPSRFSGSGSGTDFTLTISSLQPEDFATYYCQQSYNTPWTFGQGTKVEIKR	no binding	binds
Polypeptide No. 179 (scFv, V domains shown, scFv) VH: QVQLVQSGAEVKKPGASVKVSCKASGGTFSSYAISWVRQAPGQGLEWMGTINPSGGSTNYAQKFQGRVTMTRDTSTSTVYMELSSLRSEDTAVYYCAIGGYDSPYMDVWGKGTTVTVSS VL: DIQMTQSPSSLSASVGDRVTITCQASQDISNYLNWYQQKPGKAPKLLIYDASNLETGVPSRFSGSGSGTDFTLTISSLQPEDFATYYCQQGYSPPWTFGGGTKVEIKR	binds	binds
Polypeptide No. 180 (scFv, V domains shown, scFv) VH: QVQLVQSGAEVKKPGASVKVSCKASGYTFTSLDINWVRQAPGQGLEWMGSMNPRSGSTAYAQSFQGRVTMTRDTSTSTVYMELSSLRSEDTAVYYCAKSDYGDYLDYWGQGTLVTVSS VL: DIQMTQSPSSLSASVGDRVTITCRASQSISPWLAWYQQKPGKAPKLLIYDASNLQSGVPSRFSGSGSGTDFTLTISSLQPEDFATYYCQQSYSTPLTFGQGTKLEIKR	binds	binds
Polypeptide No. 186 (scFv, V domains shown, scFv) VH: QVQLVQSGAEVKKPGASVKVSCKASGYTFTKYYMHWVRQAPGQGLEWMGWINPNSGNTGYAQKFQGRVTMTRDTSTSTVYMELSSLRSEDTAVYYCARDIAVAGSTYYYYGMDVWGQGTTVTVSS VL: DIQMTQSPSSLSASVGDRVTITCQASQDISNYLNWYQQKPGKAPKLLIYDATNLETGVPSRFSGSGSGTDFTLTISSLQPEDFATYYCQQSYSTPPTFGGGTKVEIKR	binds	binds
Polypeptide No. 187 (scFv, V domains shown, scFv) VH: EVQLLESGGGLVQPGGSLRLSCAASGFTFSSYDMHWVRQAPGKGLEWVSSISSSSSYIYYADSVKGRFTISRDNSKNTLYLQMNSLRAEDTAVYYCARDIDDVAGDYWGQGTLVTVSS VL: DIQMTQSPSSLSASVGDRVTITCQASQDISNYLNWYQQKPGKAPKLLIYGASSLQSGVPSRFSGSGSGTDFTLTISSLQPEDFATYYCQQSYSTPFTFGQGTKLEIKR	binds	binds
Polypeptide No. 184 (scFv, V domains shown, scFv) VH: QVQLVQSGAEVKKPGASVKVSCKASGGTFGNYGINWVRQAPGQGLEWMGVINPSSGGTNLAQKFQGRVTMTRDTSTSTVYMELSSLRSEDTAVYYCARSLGWPSPYMDVWGQGTMVTVSS VL: DIQMTQSPSSLSASVGDRVTITCRASQSISRYLNWYQQKPGKAPKLLIYDASNLETGVPSRFSGSGSGTDFTLTISSLQPEDFATYYCQQSYSTPWTFGQGTKLEIKR	binds	binds
Polypeptide No. 188 (scFv, V domains shown, scFv) VH: EVQLLESGGGLVQPGGSLRLSCAASGFTFSSYGMHWVRQAPGKGLEWVSYTSSSSSTIYYADSVKGRFTISRDNSKNTLYLQMNSLRAEDTAVYYCARGNVGDNWNDDEAFLGWGQGTLVTVSS VL: DIQMTQSPSSLSASVGDRVTITCQASQDISNYLNWYQQKPGKAPKLLIYDASNLETGVPSRFSGSGSGTDFTLTISSLQPEDFATYYCQQTYDTPYTFGQGTKLEIKR	binds	binds
